Entries after “also recorded” stand apart in the source; their conditions may differ.
B1: PGD1: recombinant Chlamydomonas galactoglycerolipid lipase (SEQ ID NO:1), His-tagged, purified from E. coli inclusion bodies and refolded (protein, listed as Chlamydomonas reinhardtii)
chain: MSQLLSHFVRVPTFASPDQVLREARDKERELQNARAPTDVSGFLAPVGVWELKHLRKLSSLTSLTYYMHLVTPRRLQLMHGLDLVVTSRACDVRPYEHNRTAEECGADGDGMAVSFAEARQVYAELKRGTGGASGSGSNGAAAAPVAVAAGVSNIVALPRELPFVPLPGGATEGGEAGAEAAAGAAAAAAAAAGEGTGPGAQGQGAGGLQLPLASTEAIGRMLRSPAEVVSAKLAEAALAASAAAAASPLGAAAESFYAGLASLPIPLAGGLVGANNKAANTLLAPPNGAAASSSGGGGGSGGAAAASEVVGSSRGAQGADPADPGAPNTSGKATAASIAAMATAELRSRRLGGTGPAKTGGSGAASSGSSSGGIGAGGMAPVTAGGMRLSPAATAFSAPPAATVSSLASTDAGTALVPVASSSAASLTFSSSSAYSCPSEWFVVDDPASATRIFVIQGSDTLDHWKLNLTFDPVVFEEPALGVKVHRGVYEAALVLYERFLPLVYEHLEASPFSKVTFTGHSIGGSMATLLMLMYRNRGVLPPHSIATVYTFGAPAVFCQQQQPAVADASSACCNGSSSNGSSTPASGSSSPRSGSPGSASASSLPAGSGSGAGGMSLWALGLSGFGMGGASLAGGGSTSAPSSTAGLASVDGGAVAAGGGGSGFNSSGLGFMSVEDPQAVSMPPGAAQAPSPASAPAPTAGPGHNSHSSHSKAGPAAAKSCACGVDGLLTRLGLAPHVVRNVVMARDVVPRAFACDYSLVADILKGWGPAFREHCCLNRHGRKHLYYFVGRMCILQPDAWHSFVGGDPEHPMLPPGPELYALAEPEDAAAARAHYPALSDLPILNAVTSNGHTRGSGGNGANAAVNAAVNASGPSAAASGGGGGSQQPTAAAAVPSTANFGTALVASAAQRERDARGGGSRLQPRSVVEAVWEIMDNPHPLETLADPGAYLASGSISRYHNPEHYTKALGRLTHLKRLAERRQHPHGQAQQKQAQPQAGEGGIRSMFAGRNIRSFGGGVRSGSGSGSAGRRGLLHQQAASNGTAADAVLASGAAGAAAAAWGSAPQLADLVSGNGGRASAGYEGGVWDSSDGLDLHLSDFMGASAVGAADPHACR
modifications: His tag

Key:
[1] = tested on: Chlamydomonas reinhardtii pgd1 mutant; experiment: Thiobarbituric acid reactive substances (TBARS) analysis following N deprivation; conditions: DCMU 2 μM, FIG. 8D
[2] = tested on: Chlamydomonas reinhardtii; experiment: TAG accumulation (ratio of fatty acids in TAG over total fatty acids) after N deprivation with DCMU; type: cell-based; conditions: 2 d of N deprivation, FIG. 8E
Procedure: FIG. 8. […] Two representative cultures per line are shown.
Strains and growth conditions.
(§1) Lipid extraction, thin-layer chromatography (TLC) of neutral lipids, transesterification and gas-liquid chromatography were done according to (Moellering and Benning 2010). Briefly, lipids were extracted from cell pellets with methanol, chloroform, 88% formic acid (2:1:0.1 by volume). To the extract 0.5 volume of 1M KCl, 0.2 M H3PO4 was added, mixed and phases were separated by low speed centrifugation. For TAG quantification, lipids were resolved by TLC on Silica G60 plates (EMD chemicals, #5721-7, http://www.emdchemicals.com) developed in petroleum ether-diethyl ether-acetic acid (80:20:1 by volume). Polar lipids were separated on the same plate using chloroform-methanol-acetic acid-H2O (75:13:9:3 by volume) as solvent. To analyze lyso-glycolipids during for the PGD1 assay, acetone-toluene-H2O (91:30:7.5 by volume) was used, instead. Brief exposure to iodine vapor was employed for visualization of lipids. Transesterification of each lipid and separation of fatty acid methyl esters by GLC were as previously described (Rossak et al. 1997). Transesterification was conducted on pellets with a known number of cells to determine the cellular total fatty acid content. Staining with α-naphtol (Benning et al. 1995) was used for the PGD1 assay to detect galactoglycerolipids.

[3] = tested on: Chlamydomonas reinhardtii pgd1 mutant; experiment: Chlorosis, chlorophyll content and cell viability of N-deprived cultures with DCMU; conditions: DCMU 2 μM added to N-deprived (TAP-N) cultures
[4] = PGD1 lipase assay on other major membrane lipids; type: biochemical, Chlamydomonas
Procedure: (§2) Lipid extraction, thin-layer chromatography (TLC) of neutral lipids, transesterification and gas-liquid chromatography were done according to (Moellering and Benning 2010). Briefly, lipids were extracted from cell pellets with methanol, chloroform, 88% formic acid (2:1:0.1 by volume). To the extract 0.5 volume of 1M KCl, 0.2 M H3PO4 was added, mixed and phases were separated by low speed centrifugation. For TAG quantification, lipids were resolved by TLC on Silica G60 plates (EMD chemicals, #5721-7, http://www.emdchemicals.com) developed in petroleum ether-diethyl ether-acetic acid (80:20:1 by volume). Polar lipids were separated on the same plate using chloroform-methanol-acetic acid-H2O (75:13:9:3 by volume) as solvent. […]
(§3) BL21 (codon+) E. coli strains harboring the empty pMK1006 vector or the pMK1006-PGD1 construct were grown to log phase at 37° C. […] Protein concentration was determined with Bio-Rad Protein Assay Dye Reagent Concentrate (http://www.bio-rad.com) according to the manufacturer's instructions.
(§4) To prepare lipid substrates from Chlamydomonas or E. coli cells, lipids were extracted from 48 hours N-deprived Chlamydomonas cells or IPTG induced E. coli cells expressing cucumber MGDG synthase (Shimojima et al. 1997) and resolved by polar TLC. […] Per assay 10 μg refolded PGD1 protein (quantified as stated above) in 50 μL protein refolding buffer was added. […]

[5] = PGD1 lipase assay on MGDG; type: biochemical
Procedure: as §1
BL21 (codon+) E. coli strains harboring the empty pMK1006 vector or the pMK1006-PGD1 construct were grown to log phase at 37° C. Isopropyl-β-D-thiogalactopyranoside was added to the final concentration of 0.5 mM to induce protein production. Cells were harvested after 3 hours of induction. To extract proteins, cells were resuspended in lysis buffer (20 mM Tris-HCl, pH 7.9, 10% glycerol, 150 mM NaCl, 1 mM dithiothreitol). The mixture was then frozen in liquid nitrogen and thawed at room temperature for three cycles and sonicated to lyse cells. Lysates were centrifuged at 21,000×g for 15 minutes to obtain inclusion bodies. Inclusion bodies were washed with 5 mL/g wash buffer (4 M urea, 0.5 M NaCl, 1 mM EDTA, 1 mg/ml sodium deoxycholate, 50 mM Tris-Cl pH 8.0) twice and denatured with solubilization buffer (8 M urea, 50 mM Tris-Cl pH 8.0, 10 mM dithiothreitol) by incubation at 50° C. for 20 min. Supernatant was collected after centrifugation at 21,000×g for 30 minutes and subjected to Ni-NTA affinity purification as described before (Lu and Benning 2009). His-tagged PGD1 protein was eluted with solubilization buffer containing 200 mM imidazole. […] After 1 hour incubation at 4° C., proteins were aliquoted and kept frozen at −80° C. Protein concentration was determined with Bio-Rad Protein Assay Dye Reagent Concentrate (http://www.bio-rad.com) according to the manufacturer's instructions.
as §4, with “TLC. Corresponding bands were isolated and lipids were recovered from silica gel by extraction with chloroform-methanol (1:1 by volume). For each PGD1 reaction, 75 nmol lipid substrates extracted from Chlamydomonas, or E. coli cells expressing the cucumber MGDG synthase were used.” for “TLC.”

[6] = PGD1 lipase assay on DGDG; type: biochemical, Chlamydomonas
Procedure: as §2, §3, §4

| Molecule | burst of TBARS in the pgd1 mutant [1] | pgd1 TAG phenotype ([2]; pgd1 mutant, DCMU 2 μM) | TAG levels of the wild-type parental strain ([2]; wild-type parental strain dw15-1, DCMU 2 μM) | chlorosis ([3]; FIG. 8A, B) | viability loss ([3]; FIG. 8C) | generation of lyso-DGTS and lyso-PtdEtn ([4]; iodine staining, compared with Rhizopus lipase, FIGS. 16A and 16B) | Lyso-SQDG hydrolysis ([4]; sugar-specific staining, FIG. 16D) | apparent MGDG concentration up to which hydrolysis was linear in reaction velocity ([5]; E. coli-derived MGDG, 3 hours incubation, FIG. 15B) [µM] | time at which lyso-MGDG was detectable ([5]; E. coli-derived MGDG, FIG. 15A) [min] | positional preference of acyl group hydrolysis ([5]; E. coli-derived MGDG, compared with Rhizopus lipase digestion, FIG. 7H, 7I) | activity on E. coli-derived MGDG versus mature MGDG from Chlamydomonas ([5]; intensity of the lyso-MGDG band, FIG. 7B) | lyso-MGDG product generated ([5]; mature MGDG isolated from Chlamydomonas (predominantly 18:3/16:4), TLC, FIG. 7B) | formation of lyso-DGDG ([6]; DGDG extracted from Chlamydomonas, sugar-specific staining, FIG. 7C) | product formed in competition experiment ([6]; E. coli-derived MGDG and Chlamydomonas-derived DGDG offered in equal amounts) |
| --- | --- | --- | --- | --- | --- | --- | --- | --- | --- | --- | --- | --- | --- | --- |
| CN(C)C(=O)Nc1ccc(Cl)c(Cl)c1 [DCMU, 3-(3,4-dichlorophenyl)-1,1-dimethylurea] | reverted | did not rescue | decrease; also recorded: lower levels of TAG | suppressed | suppressed | – | – | – | – | – | – | – | – | – |
| B1 | – | – | – | – | – | detectable by iodine staining, but at much lower levels | not detectable | ≤ 300 | 30 | prefers acyl groups at the sn-1 position | more active | rather faint | no formation of lyso-DGDG was detected | only lyso-MGDG was formed |
